In publication PMC7192624:

Substrate: Nc1nc2c(ncn2[C@@H]2O[C@H](COP(=O)(O)OP(=O)(O)OP(=O)(O)O)[C@@H](O)[C@H]2O)c(=O)[nH]1
Assay: purified protein
Format: biochemical, Saccharomyces cerevisiae
Conditions: pH 8.0, 300 mM NaCl, 5 mM MgCl2, 30°C, labelled compound, Snu114 without Prp8

B1: Snu114^72-1008 (isolated) (Saccharomyces cerevisiae S288C) (protein)
chain: KEVEVLMETKNTQSPQTPLVEPVTERTKLQEHTIFTQLKKNIPKTRYNRDYMLSMANIPERIINVGVIGPLHSGKTSLMDLLVIDSHKRIPDMSKNVELGWKPLRYLDNLKQEIDRGLSIKLNGSTLLCTDLESKSRMINFLDAPGHVNFMDETAVALAASDLVLIVIDVVEGVTFVVEQLIKQSIKNNVAMCFVINKLDRLILDLKLPPMDAYLKLNHIIANINSFTKGNVFSPIDNNIIFASTKLGFTFTIKEFVSYYYAHSIPSSKIDDFTTRLWGSVYYHKGNFRTKPFENVEKYPTFVEFILIPLYKIFSYALSMEKDKLKNLLRSNFRVNLSQEALQYDPQPFLKHVLQLIFRQQTGLVDAITRCYQPFELFDNKTAHLSIPGKSTPEGTLWAHVLKTVDYGGAEWSLVRIYSGLLKRGDTVRILDTSQSESRQKRQLHDISKTETSNEDEDEDDETPSCEVEEIGLLGGRYVYPVHEAHKGQIVLIKGISSAYIKSATLYSVKSKEDMKQLKFFKPLDYITEAVFKIVLQPLLPRELPKLLDALNKISKYYPGVIIKVEESGEHVILGNGELYMDCLLYDLRASYAKIEIKISDPLTVFSESCSNESFASIPVSNSISRLGEENLPGLSISVAAEPMDSKMIQDLSRNTLGKGQNCLDIDGIMDNPRKLSKILRTEYGWDSLASRNVWSFYNGNVLINDTLPDEISPELLSKYKEQIIQGFYWAVKEGPLAEEPIYGVQYKLLSISVPSDVNIDVMKSQIIPLMKKACYVGLLTAIPILLEPIYEVDITVHAPLLPIVEELMKKRRGSRIYKTIKVAGTPLLEVRGQVPVIESAGFETDLRLSTNGLGMCQLYFWHKIWRKVPGDVLDKDAFIPKLKPAPINSLSRDFVMKTRRRKGISTGGFMSNDGPTLEKYISAELYAQLRENGLVP
notes: residues 72-1008 (acidic N-terminal region truncated), C-terminal Strep tag (pIDS-C-Strep), synthetic gene, recombinant in insect cells (MultiBac)
B1 gave a Km of 578.4 µM and a kcat of 0.001012 s⁻¹.
